Here are results for four substances from patent US20120282612A1.

Assay [1] deals with PSA (prostate specific antigen) in serum of prostatic hypertrophy patient (human) (UniProt P07288). Put plainly: TJA-II-Sepharose column, serum of prostatic hypertrophy patient 7; total PSA immunoassay of fractions.
For assay [2] the target is unchanged. Nature of the assay: TJA-II-Sepharose column, serum of prostatic hypertrophy patient 8; total PSA immunoassay of fractions.
Assay [3] has the same target. Put plainly: TJA-II-Sepharose column, serum of prostatic hypertrophy patient 1; total PSA immunoassay of fractions.
Assay [4] concerns the target PSA (prostate specific antigen) in serum of prostate cancer patient (human) (UniProt P07288). Put plainly: TJA-II-Sepharose column, serum of prostate cancer patient 3; total PSA immunoassay of fractions.
Assay [5] deals with PSA (prostate specific antigen) in serum of prostatic hypertrophy patient (human) (UniProt P07288). Put plainly: TJA-II-Sepharose column, serum of prostatic hypertrophy patient 6; total PSA immunoassay of fractions.
For assay [6] the target is unchanged. Put plainly: TJA-II-Sepharose column, serum of prostatic hypertrophy patient 3; total PSA immunoassay of fractions.
The target of assay [7] is PSA in seminal fluid of normal men (human) (UniProt P07288). Nature of the assay: TJA-II-Sepharose column, binding rate of PSA.
For assay [8], the target named is PSA (prostate specific antigen) in serum of prostate cancer patient (human) (UniProt P07288). Put plainly: TJA-II-Sepharose column, binding rate of PSA.
Assay [9] has as its target PSA (prostate specific antigen) in serum of prostatic hypertrophy patient (human) (UniProt P07288). Put plainly: TJA-II-Sepharose column, binding rate of PSA.
Assay [10] has as its target PSA (prostate specific antigen) in serum of prostate cancer patient (human) (UniProt P07288). Nature of the assay: TJA-II-Sepharose column, serum of prostate cancer patient 10; total PSA immunoassay of fractions.
Assay [11] shares this target. Put plainly: TJA-II-Sepharose column, serum of prostate cancer patient 7; total PSA immunoassay of fractions.
For assay [12] the target is unchanged. Put plainly: TJA-II-Sepharose column, serum of prostate cancer patient 2; total PSA immunoassay of fractions.
For assay [13] the target is unchanged. Put plainly: TJA-II-Sepharose column, serum of prostate cancer patient 6; total PSA immunoassay of fractions.
The target is the same in assay [14]. Put plainly: TJA-II-Sepharose column, serum of prostate cancer patient 15; total PSA immunoassay of fractions.
Assay [15] deals with Sialidase-treated PSA in seminal fluid of normal men (human) (UniProt P07288). Put plainly: TJA-II-Sepharose column, sialidase-treated sample.
Assay [16] has as its target Sialidase-treated PSA in serum of prostate cancer patient (human) (UniProt P07288). Nature of the assay: TJA-II-Sepharose column, sialidase-treated sample.
In assay [17] the target is Sialidase-treated PSA in serum of prostatic hypertrophy patient (human) (UniProt P07288). Put plainly: TJA-II-Sepharose column, sialidase-treated sample.
Assay [18] deals with PSA (prostate specific antigen) in serum of prostatic hypertrophy patient (human) (UniProt P07288). Put plainly: TJA-II-Sepharose column, serum of prostatic hypertrophy patient 4; total PSA immunoassay of fractions.
The target of assay [19] is PSA (prostate specific antigen) in serum of prostate cancer patient (human) (UniProt P07288). Nature of the assay: TJA-II-Sepharose column, 20 sera of prostate cancer patients.
For assay [20] the target is unchanged. Nature of the assay: TJA-II-Sepharose column, serum of prostate cancer patient 11; total PSA immunoassay of fractions.
Assay [21] deals with PSA (prostate specific antigen) in serum of prostatic hypertrophy patient (human) (UniProt P07288). Put plainly: TJA-II-Sepharose column, serum of prostatic hypertrophy patient 9; total PSA immunoassay of fractions.
Assay [22] has the same target. Nature of the assay: TJA-II-Sepharose column, serum of prostatic hypertrophy patient 2; total PSA immunoassay of fractions.
For assay [23], the target named is PSA (prostate specific antigen) in serum of prostate cancer patient (human) (UniProt P07288). Put plainly: TJA-II-Sepharose column, serum of prostate cancer patient 5; total PSA immunoassay of fractions.
For assay [24] the target is unchanged. Nature of the assay: TJA-II-Sepharose column, before sialidase treatment (Table 4 prints 16%).
The target is the same in assay [25]. Nature of the assay: TJA-II-Sepharose column, serum of prostate cancer patient 13; total PSA immunoassay of fractions.
Assay [26] has the same target. Put plainly: TJA-II-Sepharose column, serum of prostate cancer patient 14; total PSA immunoassay of fractions.
Assay [27] concerns the target PSA (prostate specific antigen) in serum of prostatic hypertrophy patient (human) (UniProt P07288). Nature of the assay: TJA-II-Sepharose column, 20 sera of prostatic hypertrophy patients.
Assay [28] addresses PSA (prostate specific antigen) in serum of prostate cancer patient (human) (UniProt P07288). Nature of the assay: TJA-II-Sepharose column, serum of prostate cancer patient 9; total PSA immunoassay of fractions.
The target is the same in assay [29]. Nature of the assay: TJA-II-Sepharose column, serum of prostate cancer patient 12; total PSA immunoassay of fractions.
The target of assay [30] is PSA (prostate specific antigen) in serum of prostatic hypertrophy patient (human) (UniProt P07288). Put plainly: TJA-II-Sepharose column, serum of prostatic hypertrophy patient 5; total PSA immunoassay of fractions.
The target of assay [31] is PSA (prostate specific antigen) in serum of prostate cancer patient (human) (UniProt P07288). Nature of the assay: TJA-II-Sepharose column, serum of prostate cancer patient 4; total PSA immunoassay of fractions.
For assay [32] the target is unchanged. Put plainly: TJA-II-Sepharose column, serum of prostate cancer patient 1; total PSA immunoassay of fractions.
The target is the same in assay [33]. Put plainly: TJA-II-Sepharose column, serum of prostate cancer patient 8; total PSA immunoassay of fractions.
Assay [34] has the same target. Nature of the assay: WFA-Sepharose column, serum of prostate cancer patient 12; total PSA immunoassay of fractions.
Assay [35] has the same target. Nature of the assay: WFA-Sepharose column, serum of prostate cancer patient 6; total PSA immunoassay of fractions.
For assay [36] the target is unchanged. Put plainly: WFA-Sepharose column, binding rate of PSA.
Assay [37] shares this target. Put plainly: WFA-Sepharose column, serum of prostate cancer patient 15; total PSA immunoassay of fractions.
Assay [38] deals with PSA in seminal fluid of normal men (human) (UniProt P07288). Nature of the assay: MAA-Sepharose column, 5 ng purified PSA applied, 3.5 ng recovered in all fractions.
Assay [39] concerns the target PSA (prostate specific antigen) in serum of prostate cancer patient (human) (UniProt P07288). Put plainly: UEA-I agarose column, binding rate of PSA.

Maackia amurensis agglutinin, sequence (P0DKL3 30-278): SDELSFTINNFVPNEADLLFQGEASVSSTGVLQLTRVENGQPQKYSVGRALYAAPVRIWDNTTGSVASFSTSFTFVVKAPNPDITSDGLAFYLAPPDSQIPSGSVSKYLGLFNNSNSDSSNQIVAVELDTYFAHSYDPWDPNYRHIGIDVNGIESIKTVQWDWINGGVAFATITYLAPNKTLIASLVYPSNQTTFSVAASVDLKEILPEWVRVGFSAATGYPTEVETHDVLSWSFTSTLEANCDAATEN

As to Trichosanthes japonica agglutinin-II, the TJA-II binding ratio was less than 0.05% in assay [1]; 1% in assay [2]; 1.2% in assay [3]; 3% in [4]; 1.8% in assay [5]; 0.2% in assay [6]. The TJA-II binding ratio in assay [10] is 4.6%; in assay [11], 8.2%; in assay [12] it was 5%; in [13] it was 10.8%; in [14] it was 5%; in assay [18], 0.6%. Further, the TJA-II binding ratio is 23% in assay [20]; less than 0.05% in assay [21]; less than 0.05% in [22]; 7% in assay [23]; 5% in assay [25]; 4% in assay [26]. In addition, the TJA-II binding ratio came to 14% in [28]; 8% in [29]; 1.5% in [30]; 4.5% in assay [31]; 6.4% in assay [32]; 21% in assay [33]. The TJA-II-bound PSA in serum sample in assay [2] amounted to 0.09 ng/mL; in assay [3], 0.2 ng/mL; in assay [4], 2.4 ng/mL; in assay [5], 0.17 ng/mL; in assay [6] it was 0.02 ng/mL; in assay [10], 0.46 ng/mL. Moreover, the TJA-II-bound PSA in serum sample in assay [11] amounted to 5.58 ng/mL; in [12], 6.6 ng/mL; in [13], 388 ng/mL; in [14] it was 0.61 ng/mL; in assay [18] it was 0.04 ng/mL; in assay [20] it was 1.04 ng/mL. The TJA-II-bound PSA in serum sample in assay [23] came out at 6.3 ng/mL; in assay [25], 0.24 ng/mL; in assay [26], 0.85 ng/mL; in assay [28] it was 0.84 ng/mL; in assay [29], 4.3 ng/mL; in assay [30], 0.12 ng/mL. Further, the TJA-II-bound PSA in serum sample in assay [31] stood at 9.5 ng/mL; in [32], 128 ng/mL; in [33] it was 0.9 ng/mL. For the same substance, the binding rate in [7] came out at 2%; in [8], 16%; in [9], 2%; in [15], 8.4%; in assay [16] it was 59%; in assay [17], 2%. In [24], this substance yielded a binding rate of 11%. The figures for the TJA-II binding rate in assay [19] and in assay [27] were greater than 2% and less than 2%, respectively.
Take Wisteria floribunda agglutinin: the WFA binding ratio is 7.5% in [34], 9.4% in [35] and 4.2% in assay [37]. Also, the WFA-bound PSA in serum sample was 3.91 ng/mL in [34], 328 ng/mL in assay [35] and 0.49 ng/mL in assay [37]. Moreover, the binding rate in [36] is 11%.
In assay [38], Maackia amurensis agglutinin showed a percent considered bound to the column of 30%.
In assay [39], “Ulex europaeus agglutinin-1 (from UniProt P22972 1-243)” came in with a binding rate of 5%.
